Measurements reported in publication PMC3386906 (2012).

T1: ChemR23 (Mus musculus, UniProt P97468)
T1 chain: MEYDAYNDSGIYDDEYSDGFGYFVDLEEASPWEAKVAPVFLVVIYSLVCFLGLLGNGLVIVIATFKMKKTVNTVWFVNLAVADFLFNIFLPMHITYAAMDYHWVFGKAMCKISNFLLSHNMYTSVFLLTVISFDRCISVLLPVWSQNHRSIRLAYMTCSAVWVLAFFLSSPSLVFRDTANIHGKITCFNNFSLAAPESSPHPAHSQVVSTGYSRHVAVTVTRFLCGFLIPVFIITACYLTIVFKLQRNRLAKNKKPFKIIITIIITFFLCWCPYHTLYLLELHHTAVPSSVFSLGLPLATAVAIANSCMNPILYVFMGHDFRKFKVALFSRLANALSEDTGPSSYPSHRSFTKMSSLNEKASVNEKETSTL

T2: ChemR23 (Homo sapiens, UniProt Q99788)
T2 chain: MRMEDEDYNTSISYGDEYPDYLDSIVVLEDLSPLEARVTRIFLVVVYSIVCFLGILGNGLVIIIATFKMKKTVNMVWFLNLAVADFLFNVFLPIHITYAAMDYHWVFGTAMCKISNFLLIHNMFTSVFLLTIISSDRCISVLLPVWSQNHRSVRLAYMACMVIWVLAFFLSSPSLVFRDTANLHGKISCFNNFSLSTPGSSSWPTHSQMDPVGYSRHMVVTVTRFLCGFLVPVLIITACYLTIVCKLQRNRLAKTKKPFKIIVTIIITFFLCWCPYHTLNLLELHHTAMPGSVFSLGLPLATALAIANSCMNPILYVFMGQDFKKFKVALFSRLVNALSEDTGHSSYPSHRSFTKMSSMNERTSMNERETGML


Key:
ChemR23 [1] = target: T1, ChemR23; experiment: radioligand saturation binding (CHO-K1 cells)
ChemR23 [2] = target: T1, ChemR23; experiment: radioligand saturation binding (125I-chemerin, peritoneal macrophages)
ChemR23 [3] = target: T2, ChemR23; experiment: radioligand

| Binder | Kd (ChemR23 [1]) [nM] | Kd (ChemR23 [2]) [nM] | Kd (ChemR23 [3]) [nM] |
| --- | --- | --- | --- |
| chemerin (protein, 125I-labelled chemerin) ELTEAQRRGLQVALEEFHKHPPVQWAFQETSVESAVDTPFPAGIFVRLEFKLQQTSCRKRDWKKPECKVRPNGRKRKCLACIKLGSEDKVLGRLVHCPIETQVLREAEEHQETQCLRVQRAGEDPHSFYFPGQFAFS | 1.1 | ~1.2 |  |
| chemerin (protein) ELTEAQRRGLQVALEEFHKHPPVQWAFQETSVESAVDTPFPAGIFVRLEFKLQQTSCRKRDWKKPECKVRPNGRKRKCLACIKLGSEDKVLGRLVHCPIETQVLREAEEHQETQCLRVQRAGEDPHSFYFPGQFAFS |  |  | 0.9 |
